The results in this text go back to patent US20160244529A1 (ROTTAPHARM BIOTECH S R L, published 2016).

T1: human Ig1,2 TrkA (recombinant D4-D5 domain of human TrkA receptor) (human, UniProt P04629 191-392)
T1 construct: also called hTrkA Ig1,2; TrkA Ig1,2
T1 chain: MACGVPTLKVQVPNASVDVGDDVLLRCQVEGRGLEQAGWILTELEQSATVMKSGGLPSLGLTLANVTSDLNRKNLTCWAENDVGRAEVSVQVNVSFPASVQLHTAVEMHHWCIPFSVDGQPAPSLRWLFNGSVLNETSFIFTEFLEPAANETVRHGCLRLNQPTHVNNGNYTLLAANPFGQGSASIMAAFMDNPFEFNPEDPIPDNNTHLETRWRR

T2: human p75 immunoadhesin (human; Camelus dromedarius, UniProt P08138 29-250)
T2 construct: extracellular domain; also called hp75-Fc; p75NTR immunoadhesin; not shown: Fc portion (immunoglobulin heavy chain constant region) of IgG2a camel antibody (Camelus dromedarius)
T2 sequence (looked up): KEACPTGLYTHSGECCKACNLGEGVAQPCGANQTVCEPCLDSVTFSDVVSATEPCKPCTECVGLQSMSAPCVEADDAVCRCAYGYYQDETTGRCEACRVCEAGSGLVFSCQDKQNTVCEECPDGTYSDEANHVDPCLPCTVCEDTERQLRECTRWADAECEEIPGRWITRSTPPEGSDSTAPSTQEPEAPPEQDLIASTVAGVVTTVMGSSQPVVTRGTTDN

B1: anti-TrkA scFv CRB0082 (scFv)
scFv: SYVLTQPPSVSVAPGTTARLSCEATKIGSQRLHWYQQKPGQAPVMVISFDSDRPSGIPDRFSGSRSGNTATLTISGVEAGDEADYYCNSRDSSGYHLVFGGGTKLTVLSGGSTSGSGKPGSGEGSSGTQVQLQQSGPGLVKPSQTLSLTCAISGDSVSSFTVAWNWIRQSPSRGLERLGRTYRRSKDYAEYMRSRLTINADTSKNQLSLQLDSVTPDDTAVYYCARGQNSAFDLWGQRTMVTVSS
notes: From hSPLINT_09 selection
B2: anti-TrkA scFv CRB0069 (scFv)
scFv: QPGLTQPPSASGTPGQRVTISCTGSSSNVGAGYTVHWYQQLPGTAPTLLIYDNNNRPSGVPDRFSGSRSGTSASLAITGLRAEDEADYYCQSYDRSRVYVFGTGTKLTVLSGGSTSGSGKPGSGEGSSGTQVQLQQSGPGLVKPSQTLSLTCAISGDSVSSNSAAWNWIRQSPSRGLERLGRTYYRSKWYNDYAESVKSRIIINSGTSKNQFSLHLNSVTPEDTAVYYCGRAKDGWYDAFDIWGQGTTVTVSS
notes: From hSPLINT_09 selection
B3: anti-TrkA scFv CRB0089 (scFv)
scFv: QTVVTQEPSVSGAPGQRVTISCTGSSSIIGAGYEVHWYQHLPGTAPKLLIYDSINRPSGVPDRFSGSKSGTSASLAITGLQAEDEADYYCQSSAIFGGGTKLTVLSGGSTSGSGKPGSGEGSSGTQVQLQESGPGLVKPSQTLSLTCAISGDSVSSNSAAWNWIRQSPSRGLEWLGRTFHRSRWYNEYPVSVRSRITINPDTSNNQFTLQLNSVTPDDTAVYYCARAPVAGLTFDIWGQGTMVTVSS
notes: From hSPLINT_09 selection
B4: anti-TrkA scFv CRB0084 (scFv)
scFv: QPVLTQPPSVSVAPRQTATITCGGNYIGSKSVHWYQQKPGQDPVLVVNDDSDRPSGIPERFSGSNSANTATLTISGVEAGDEADYYCQVWDSSTEPVVFGGGTKLTVLSGGSTSGSGKPGSGEGSSGTQVQLQQWGAGLLRPSETLSLTCTVSGGSFSDSYWTWIRQSPGKGLEWIGENNHRGSTNYSPTLRSRLSISIDSSKNQFSLKLSSVTAADTAVYYCARVPYRLRSRIFDVWGQGTMVTVSS
notes: From hSPLINT_09 selection
B5: anti-TrkA scFv CRB0036 (scFv)
scFv: DIVMTQAAPSVPVTPGESVSISCRSSKSLLHSSGITSLYWYLQRPGQSPQLPIYRMSSLASGVPDRFSVSGSGTAFTLRISRVEAEDVGVYYCMQHLEYPLTFGAGTKLELKRSGGSTSGSGKPGSGEGSSGTQVQLQQSGAELLKPGASVKISCKATGYTFSNYWIEWVKQRPGHGLEWIGEILPGSGSAHYSEKFKDKATFTADTSSNTAYMQLSSLTSEDSAVYFCTRSPPNPGYWGQGTSVTVSS
notes: From mSPLINT selection

T3 sequence (Q3UFB7 other isoform, or with tags, fused parts or gaps limits assumed): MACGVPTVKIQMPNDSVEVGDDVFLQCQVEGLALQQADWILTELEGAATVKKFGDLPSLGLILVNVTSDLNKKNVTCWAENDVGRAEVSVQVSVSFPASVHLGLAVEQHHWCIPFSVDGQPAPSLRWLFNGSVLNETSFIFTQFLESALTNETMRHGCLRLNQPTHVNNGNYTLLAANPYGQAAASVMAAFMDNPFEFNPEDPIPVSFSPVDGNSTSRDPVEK
T4 sequence (Q16620 32-430): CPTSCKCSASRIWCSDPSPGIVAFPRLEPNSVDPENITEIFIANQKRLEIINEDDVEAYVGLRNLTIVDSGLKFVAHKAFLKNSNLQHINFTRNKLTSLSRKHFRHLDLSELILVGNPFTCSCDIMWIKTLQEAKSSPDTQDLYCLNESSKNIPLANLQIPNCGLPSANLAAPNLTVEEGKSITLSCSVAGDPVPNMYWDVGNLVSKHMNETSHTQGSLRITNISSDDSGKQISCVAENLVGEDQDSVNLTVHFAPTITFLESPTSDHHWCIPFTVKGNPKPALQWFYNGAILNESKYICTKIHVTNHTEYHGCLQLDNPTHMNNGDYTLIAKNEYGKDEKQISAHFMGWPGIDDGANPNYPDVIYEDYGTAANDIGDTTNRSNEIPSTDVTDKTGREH

The target in one experiment is T1, human Ig1,2 TrkA (recombinant D4-D5 …). Kind of experiment: SPR (Biacore X-100); scFv immobilised on CM5 chip, human Ig1,2 TrkA injected. How it is done:
(§1) The antibodies were also shown to be specific for hTrkA and mTrkA by relative binding to the BIACore sensor chips coated with the appropriate antigen. Antibodies were immobilized by ammine coupling to Biosensor CM5 sensorchips (Pharmacia) according to the manufacturers instructions. Anti-TrkA scFv proteins were diluted at 20-50 μg/ml in suitable pre-concentration buffer (at least 2 pH unit below the pI of the scFv in order to get a net positive charge), chosen among the Acetate buffers. The scFvs were immobilized at 100 RU to get a low density immobilization. As binder, the recombinant protein consisting of D4-D5 domain of human and murine TrkA receptor (hTrkA Ig1,2 and mTrkA Ig1,2 respectively) were injected over the immobilized scFv with a contact time of 60 seconds and with a dissociation time of 400 seconds and the assay workflow placed 5 serial dilutions of the TrkA Ig1,2 (starting in the micromolar range and diluting 1:2 each time). The regeneration condition were mild (contact time 30 seconds, 10 mM Glycine pH2). On the basis of the resulting sensorgrams, the concentrations of TrkA Ig1,2 were adjusted to optimize, contact time, dissociation time and regeneration. Data were analysed by Bioevaluation Software (see results on Table II and Table III). The quality of the data fitting were checked by the value of Chi² and of the U-value.
(§2) We have carried out surface plasmon resonance (SPR) analyses to determine the binding kinetics of a panel of isolated anti-TrkA scFvs (SEQ ID NOs: 1, 2, 3, 4, 5, 6, 7, 8, 9, 10, 11, 12, 13, 14, 15 and 16). The scFvs were immobilized on a CM5 chip followed by injections at various concentration of human and murine Ig 1,2 TrkA (SEQ ID NO: 78) and mouse Ig1,2 TrkA (SEQ ID NO: 79).
Consider B1, for which the Kd (as a rule, the equilibrium constant for the complex coming apart) was 42.1 nM; the koff (usually the rate constant with which the complex falls apart) was 8.79e-05 s⁻¹; the kon – broadly, the rate constant with which the complex forms – came out at 2090 M⁻¹ s⁻¹.
In the case of B2, the Kd came out at 5.7 nM, the koff was determined as 3.57e-05 s⁻¹ and the kon came out at 6270 M⁻¹ s⁻¹.
For B3, in that order: 16.9 nM, 7.76e-05 s⁻¹ and 4600 M⁻¹ s⁻¹.
Regarding B4, the Kd came to 1700 nM, the dissociation rate constant (koff) came out at 0.0163 s⁻¹ and the kon was determined as 9600 M⁻¹ s⁻¹.
Consider B5, for which the Kd worked out at 13.7 nM, the koff is 3.75e-05 s⁻¹ and the kon stood at 2730 M⁻¹ s⁻¹.

The next experiment addresses T3, mouse Ig1,2 TrkA (recombinant D4-D5 domain of murine TrkA receptor) (mouse, UniProt Q3UFB7 193-413).
T3 construct: also called mTrkA Ig1,2
Kind of experiment: SPR (Biacore X-100); scFv immobilised on CM5 chip, mouse Ig1,2 TrkA injected. The method, then: as §1, §2
With B1, the dissociation constant Kd is 131 nM, the koff is 0.000344 s⁻¹ and the on-rate (kon) came out at 2630 M⁻¹ s⁻¹.
Turning to B2, the Kd stood at 1.67 nM, the koff worked out at 1.02e-05 s⁻¹ and the kon came to 6120 M⁻¹ s⁻¹.
In the same order, the values of B3 are 14.2 nM, 3.19e-05 s⁻¹ and 2250 M⁻¹ s⁻¹.
On to B4, for which the dissociation constant (Kd) is 2.18 nM, the koff was determined as 2.33e-05 s⁻¹ and the kon was 10700 M⁻¹ s⁻¹.
As for B5, the Kd worked out at 1.1 nM, the off-rate constant (koff) worked out at 7.07e-06 s⁻¹ and the kon is 6440 M⁻¹ s⁻¹.

A further experiment addresses T4, human TrkB immunoadhesin (human; Camelus dromedarius, UniProt Q16620 32-430).
T4 construct: extracellular domain; also called hTrkB-Fc; TrkB immunoadhesins; not shown: Fc portion (immunoglobulin heavy chain constant region) of IgG2a camel antibody (Camelus dromedarius)
Kind of experiment: specificity ELISA, antigens coated at 2 µg/mL, scFv at 50 ug/mL (upper panel) and 5 ug/mL (lower panel), OD 450 nm. How it is done: (§3) FIG. 3. Specificity ELISA of isolated anti-TrkA scFvs versus human TrkA immunoadhesin (hTrkA-Fc), human TrkB immunoadhesins (hTrkB-Fc), human TrkC immunoadhesins (hTrkC-Fc) and human p75 immunoadhesins (hp75-Fc). Human antigens were coated at 2 μg/mL. Anti-TrkA scFvs were used at 50 μg/mL (upper panel) and/or 5 μg/mL (lower panel). The mean absorbance at 450 nm of the experiments performed in duplicate wells is shown with SD indicated by the bars.
B4: the binding result is recorded as “no binding (tested: 50 ug/mL)”.

The target of another experiment is T5, human TrkC immunoadhesin (human; Camelus dromedarius, UniProt Q16288 32-429).
T5 construct: extracellular domain; also called hTrkC-Fc; TrkC immunoadhesins; not shown: Fc portion (immunoglobulin heavy chain constant region) of IgG2a camel antibody (Camelus dromedarius)
The experiment is described as above. How it is done: as §3
Consider B3, for which the binding result is given as “no binding (tested: 50 ug/mL)”.
The same measure, in the same setting: to B4 belongs “no binding (tested: 50 ug/mL)”.

Another experiment concerns the target T2, human p75 immunoadhesin. The description is as above. The method, then: as §3
Regarding B3, the binding result is listed as “no binding (tested: 50 ug/mL)”.
Same read-out and setting: to B5 belongs “no binding (tested: 50 ug/mL)”.

The target of another experiment is T6, human TrkA receptor (native, on TF-1 cells) (human, UniProt P04629 33-796).
T6 construct: also called TF1 expressing TrkA receptor; TF-1 cell line expressing human TrkA receptor
T6 sequence (P04629 33-796 limits assumed): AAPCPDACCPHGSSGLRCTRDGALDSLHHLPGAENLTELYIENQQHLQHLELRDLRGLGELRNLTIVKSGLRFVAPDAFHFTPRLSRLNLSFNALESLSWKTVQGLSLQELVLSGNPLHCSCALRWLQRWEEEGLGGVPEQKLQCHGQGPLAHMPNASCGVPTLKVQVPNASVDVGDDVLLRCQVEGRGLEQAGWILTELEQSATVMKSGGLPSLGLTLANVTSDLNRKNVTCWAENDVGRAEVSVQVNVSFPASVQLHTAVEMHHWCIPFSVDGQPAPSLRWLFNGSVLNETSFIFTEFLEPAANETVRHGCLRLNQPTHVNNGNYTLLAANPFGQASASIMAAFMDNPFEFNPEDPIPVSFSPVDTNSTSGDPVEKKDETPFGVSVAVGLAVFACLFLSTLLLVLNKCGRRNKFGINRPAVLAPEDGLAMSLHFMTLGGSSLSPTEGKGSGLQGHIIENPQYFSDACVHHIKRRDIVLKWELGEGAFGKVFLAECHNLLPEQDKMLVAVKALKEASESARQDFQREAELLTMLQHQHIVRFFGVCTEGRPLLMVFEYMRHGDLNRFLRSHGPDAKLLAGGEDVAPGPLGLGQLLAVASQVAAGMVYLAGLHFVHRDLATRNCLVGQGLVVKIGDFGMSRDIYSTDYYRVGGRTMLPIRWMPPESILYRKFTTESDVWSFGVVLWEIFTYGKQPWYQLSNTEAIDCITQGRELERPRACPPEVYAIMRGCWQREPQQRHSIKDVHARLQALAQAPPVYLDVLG
Description: chip-based flow cytometry (Agilent Bioanalyzer 2100) on TF-1 cells expressing human TrkA; scFv at 5 µg/ml per paragraph 159. How it is done:
FIG. 5. FACS analysis performed with Bioanalyzer 2100. A cell fluid chip-based fluorescent cytometric assay that runs on Bioanalyzer 2100 (Agilent) for fast characterization of small population cell phenotypes was assessed. The assay determines the expression of specific cell surface markers. In this experiment, the specificity of scFvs on TF-1 cell line expressing human TrkA receptor was assessed. Six samples can be analyzed on each chip in one automated process. Results were in good agreement with conventional flow cytometry in quantisation.
10⁶ cells/sample=tot: 6×10⁶ cells are first centrifuged at 350 g for 5 min at room temperature (RT) and wash with 12 ml of Staining Buffer (SB) at RT. The pellet was resuspended in 3 ml of SB at 4° C. and aliquot 0.5 ml of suspension in 1.5 ml conical tubes. Cells were centrifuged again at 350 g for 5 min at 4° C. and the pellet was resuspended in 1 ml HBSS at 4° C. 125 μl 16% p-formaldehyde (final conc 1.7%) was added into each tube and then the sample was incubated for 10 min at 4° C. on tube rotator. After 10 minutes, 75 μl of 10% detergent solution-Tween 20 (final conc 0.6%) was added and the samples were then incubated for 10 min at 4° C. on tube rotator. Samples were then washed once with FACS Buffer (0.8 ml/sample) at 4° C. and then centrifuged at 350 g for 5 min at 4° C. Cells were resuspended with 80 μl/sample of FACS Buffer. 20 μl of a 5× primary antibody solution were added (final concentration of scFvs is 5 μg/ml). After incubation for 1 hour at 4° C. on tube rotator samples were washed with FACS Buffer (0.5 ml/sample) at 4° C. and then centrifuged 5 min at 350 g at 4° C. Cells were resuspended with 80 μl/sample of FACS Buffer. 20 μl of a 5× secondary antibody solution were added. Final concentration of mouse anti-V5 antibody is 0.20 μg/ml. The samples were incubated for 1 hour at 4° C. on tube rotator. After incubation for 1 hour at 4° C. on tube rotator samples were washed with FACS Buffer (0.5 ml/sample) at 4° C. and then centrifuged 5 min at 350 g at 4° C. Cells were resuspended with 80 μl/sample of FACS Buffer. 20 μl of a 5× tertiary antibody solution were added. Final concentration of anti-mouse IgG-Cy5 is 4 μg/ml (1:250 diluted). The samples were incubated for 1 hour at 4° C. on tube rotator.
On the technique in general: Flow cytometry measures light scatter and fluorescence of single cells or particles in a stream.
On to B2, for which the binding result was “binds”.
For the molecule B3, the binding result was “binds”.
As to B4, the binding result was “binds”.
B5: the binding result is given as “binds”.
